The source of these data is US20180079802A1.

The target of this test is CHIKV VLP. Nature of the test: SPR (Biacore T100), VLP captured by mouse anti-CHIKV mAbs, Fab injected. Background: In SPR one partner is held on a chip, and binding of the other changes the refractive index at the surface.

B1: 3E23 Fab (Fab, V domains shown)
VH: QVQLVQSGPGLVKPSDTLSLTCSVSSDALRSRSYYWGWVRQPPGKGLEWIGTVSYSGGTYYNPSLQSRVTVSVDTSKNHFSLRLNSVTAADAAVYYCARSYFYDGSGYYYLSYFDSWGQGTLVTVSS
VL: QAVVTQEPSLTVSPGGTVTLTCASSTGAVTSGHYPNWFQQKPGQPPRALIYSTDNKHSWTPARFSGSLLGVKAALTLSDVQPEDEADYYCLLHFGGVVVFGGGTKLTVL
On to B1, for which the Kd was found to be 19.6 nM, the koff was found to be 0.000393 s⁻¹, the association rate constant (kon) was 20300 M⁻¹ s⁻¹ and the t1/2 was found to be 29 min.

B2: 4J21 Fab (Fab, V domains shown)
VH: QVQLVQSGSELKKPGASVKVSCKASGYSFTSYSINWVRQAPGQGPEWMGWIDTNTGNPTYAQDFAGRFVFSLDTSVTTAYLQISSLKAGDTAVYYCATYYVDLWGSYRQDYYGMDVWGHGTLVTVSS
VL: QSVVTQPPSVSGTPGQGVTISCSGGSSNIGSNPVNWYQMVPGTAPKLLLYTNNQRPSGVPDRFSGSKSGTSASLAINGLQSEDEADYYCAVWDDSLSGRWVFGGGTKLTVL
B2 gave a Kd of 9 nM, a koff of 0.00142 s⁻¹, a kon of 158000 M⁻¹ s⁻¹ and a t1/2 of 8 min.

What is called Kd is the free concentration of one partner at which half of the binding sites on the other are occupied at equilibrium, for simple one-to-one binding. Higher therefore signals lower affinity. The koff is the first-order rate constant of dissociation. Low values mean a long-lived complex, high ones a short-lived complex. Usually kon stands for a measure of how fast the partners come together.
